In the supplement of paper PMC10567573:

B1: KCNAB2 (parent)
chain: IPPYSRASLKGYQWLKDKILSEEG

Variants of: B1
Assay: protein stability index of a GFP-peptide fusion (GPS, HEK-293T) (PSI 1-6); higher = more stable
Conditions: c terminus: a fixed tail appended
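Further: lentivirally expressed fusions sorted by FACS into six bins by GFP to DsRed ratio, PSI derived from sequencing read proportions per bin multiplied by bin number.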

Variant	protein stability index
IPPYSRASLKGVQWLKDKILSEEG [Y12V]	2.71
IPPYSRASLKGAQWLKDKILSEEG [Y12A]	3.34
IPPYSRASLKGEQWLKDKILSEEG [Y12E]	3.87
IPPYSRASLKGWQWLKDKILSEEG [Y12W]	1.32
IPPYSRASLKGQQWLKDKILSEEG [Y12Q]	3.18
IPPYSRASLKGCQWLKDKILSEEG [Y12C]	3.04
IPPYSRASLKGSQWLKDKILSEEG [Y12S]	4.02
IPPYSRASLKGTQWLKDKILSEEG [Y12T]	3.81
IPPYSRASLKGHQWLKDKILSEEG [Y12H]	3.62
IPPYSRASLKGPQWLKDKILSEEG [Y12P]	3.17
IPPYSRASLKGRQWLKDKILSEEG [Y12R]	3.44
IPPYSRASLKGGQWLKDKILSEEG [Y12G]	3.5
IPPYSRASLKGNQWLKDKILSEEG [Y12N]	3.13
IPPYSRASLKGLQWLKDKILSEEG [Y12L]	2.51
IPPYSRASLKGIQWLKDKILSEEG [Y12I]	2.45
IPPYSRASLKGDQWLKDKILSEEG [Y12D]	3.97
IPPYSRASLKGFQWLKDKILSEEG [Y12F]	2.84
IPPYSRASLKGKQWLKDKILSEEG [Y12K]	4.35
IPPYSRAFLKGYQWLKDKILSEEG [S8F]	2.21
IPPYSRAELKGYQWLKDKILSEEG [S8E]	1.31
IPPYSRADLKGYQWLKDKILSEEG [S8D]	2.53
IPPYSRAILKGYQWLKDKILSEEG [S8I]	1.58
IPPYSRAGLKGYQWLKDKILSEEG [S8G]	1.96
IPPYSRAQLKGYQWLKDKILSEEG [S8Q]	2.72

Variant	protein stability index
IPPYSRAYLKGYQWLKDKILSEEG [S8Y]	1.9
IPPYSRANLKGYQWLKDKILSEEG [S8N]	2.53
IPPYSRAALKGYQWLKDKILSEEG [S8A]	2.6
IPPYSRATLKGYQWLKDKILSEEG [S8T]	2.24
IPPYSRAHLKGYQWLKDKILSEEG [S8H]	2.97
IPPYSRAPLKGYQWLKDKILSEEG [S8P]	2.64
IPPYSRASLKGYQELKDKILSEEG [W14E]	3.59
IPPYSRASLKGYQSLKDKILSEEG [W14S]	2.95
IPPYSRASLKGYQILKDKILSEEG [W14I]	3.45
IPPYSRASLKGYQYLKDKILSEEG [W14Y]	3.32
IPPYSRASLKGYQHLKDKILSEEG [W14H]	3.57
IPPYSRASLKGYQMLKDKILSEEG [W14M]	3.66
IPPYSRASLKGYQKLKDKILSEEG [W14K]	3.65
IPPYSRASLKGYQPLKDKILSEEG [W14P]	3.97
IPPYSRASLKGYQNLKDKILSEEG [W14N]	3.78
IPPYSRASLKGYQDLKDKILSEEG [W14D]	3.73
IPPYSRASLKGYQFLKDKILSEEG [W14F]	4.47
IPPYSRASLKGYQALKDKILSEEG [W14A]	3.76
IPPYSRASLKGYQTLKDKILSEEG [W14T]	3.3
IPPYSRASLKGYQQLKDKILSEEG [W14Q]	3.04
IPPYSRASLKGYQVLKDKILSEEG [W14V]	3.6
IPPYSRASLKGYQGLKDKILSEEG [W14G]	4.07
IPPYSRASLKGYQLLKDKILSEEG [W14L]	3.57
IPPYSRASLKGYQRLKDKILSEEG [W14R]	3.73

Variant	protein stability index
IPPYSRASLKGYQWLQDKILSEEG [K16Q]	2.31
IPPYSRASLKGYQWLPDKILSEEG [K16P]	3.39
IPPYSRASLKGYQWLGDKILSEEG [K16G]	3.26
IPPYSRASLKGYQWLADKILSEEG [K16A]	1.82
IPPYSRASLKGYQWLWDKILSEEG [K16W]	2.29
IPPYSRASLKGYQWLMDKILSEEG [K16M]	1.71
IPPYSRASLKGYQWLCDKILSEEG [K16C]	3.16
IPPYSRASLKGYQWLRDKILSEEG [K16R]	3.2
IPPYSRASLKGYQWLNDKILSEEG [K16N]	3.29
IPPYSRASLKGYQWLSDKILSEEG [K16S]	2.38
IPPYSRASLKGYQWLVDKILSEEG [K16V]	2.08
IPPYSRASLKGYQWLDDKILSEEG [K16D]	3.77
IPPYSRASLKGYQWLEDKILSEEG [K16E]	2.19
IPPYSRASLKGYQWLYDKILSEEG [K16Y]	1.84
IPPYSRASLKGYQWLTDKILSEEG [K16T]	2.74
IPPYSRASLKGYQWLIDKILSEEG [K16I]	2.49
IPPYSRASLKGYQWLLDKILSEEG [K16L]	1.02
IPPYSRASLKGYQWLHDKILSEEG [K16H]	1.53
IPPYSRASLKGYQWPKDKILSEEG [L15P]	3.61
IPPYSRASLKGYQWFKDKILSEEG [L15F]	2.59
IPPYSRASLKGYQWWKDKILSEEG [L15W]	2.18
IPPYSRASLKGYQWNKDKILSEEG [L15N]	3.64
IPPYSRASLKGYQWTKDKILSEEG [L15T]	3.08
IPPYSRASLKGYQWAKDKILSEEG [L15A]	3.71

Variant	protein stability index
IPPYSRASLKGYQWCKDKILSEEG [L15C]	3.47
IPPYSRASLKGYQWKKDKILSEEG [L15K]	3.22
IPPYSRASLKGYQWYKDKILSEEG [L15Y]	2.19
IPPYSRASLKGYQWDKDKILSEEG [L15D]	4.13
IPPYSRASLKGYQWVKDKILSEEG [L15V]	2.91
IPPYSRASLKGYQWSKDKILSEEG [L15S]	3.53
IPPYSRASLKGYQWMKDKILSEEG [L15M]	2.47
IPPYSRASLKGYQWRKDKILSEEG [L15R]	2.37
IPPYSRASLKGYQWHKDKILSEEG [L15H]	3.73
IPPYSRASLKGYQWGKDKILSEEG [L15G]	3.2
IPPYSRASLKGYQWQKDKILSEEG [L15Q]	3.52
IPPYSRASLKGYQWIKDKILSEEG [L15I]	2.11
IPPYSRASLKGYQWEKDKILSEEG [L15E]	3.19
IPPYSRASLKGYKWLKDKILSEEG [Q13K]	1.74
IPPYSRASLKGYLWLKDKILSEEG [Q13L]	1.16
IPPYSRASLKGYHWLKDKILSEEG [Q13H]	2.46
IPPYSRASLKGYNWLKDKILSEEG [Q13N]	2.32
IPPYSRASLKGYRWLKDKILSEEG [Q13R]	2.49
IPPYSRASLKGYFWLKDKILSEEG [Q13F]	2.6
IPPYSRASLKGYDWLKDKILSEEG [Q13D]	3.63
IPPYSRASLKGYYWLKDKILSEEG [Q13Y]	1.53
IPPYSRASLKGYPWLKDKILSEEG [Q13P]	2.03
